Data from paper PMC6299030, “An Allosteric-Probe for Detection of Alkaline Phosphatase Activity and Its Application in Immunoassay”.

Molecular target: Streptavidin (on Sepharose beads) (UniProt P22629 25-183)
Experiment: bead binding, flow cytometry and fluorescence microscopy; SA3 released from AP by lambda exo, no ALP; 70 mM Tris-HCl, 10 mM MgCl2, pH 8.0; 200 nM AP in 100 uL, 3 uL SA beads, 5 min at room temperature after enzyme steps at 37 C and 75 C inactivation
Settings: protein: commercial; tags: immobilized on Sepharose beads; chain copies: 4; label: 5'-FAM; hairpin with bulge

Streptavidin (on Sepharose beads), sequence (P22629 25-183): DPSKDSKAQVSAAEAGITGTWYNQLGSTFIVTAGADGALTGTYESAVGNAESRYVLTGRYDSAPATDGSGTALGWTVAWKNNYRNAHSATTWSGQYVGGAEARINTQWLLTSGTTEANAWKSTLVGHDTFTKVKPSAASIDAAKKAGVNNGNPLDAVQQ

B1: SA3 (structured_DNA)
DNA: ATTGACGCGTGTGACGCAACACTCAAT
binding result: binds
